± gives the standard error. For some of these results: Variants at the floor of the assay were thinned out.
B1: glmS ribozyme (parent)
chain: AUAAAAGCGCCAGAACUACAGAAAUGUAGUUGACGAGGAGGAGGUUUAUCGAAUUUUCGGCGGAUGCCUCCAAA

What was measured:
Conditions in all cases: with glucosamine-6-phosphate
glucosamine-6-phosphate [1] = variants of: B1; assay: kcat; higher = faster cleavage; RNA array
In short: (§1)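 On sequenced MiSeq chips, barcoded ribozyme variants were made in situ by E. coli RNA polymerase and followed at 37 °C through a hybridised Cy3 probe. Glucosamine-6-phosphate was flowed in at 40 μM to 10 mM in HEPES/KCl/Mg(OAc)2 buffer. Exponential fits to normalised per-tile medians gave kobs, and weighted Michaelis–Menten fits gave kcat and KM.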

glucosamine-6-phosphate [2] = variants of: B1; assay: KM; higher = weaker cofactor use; RNA array
In short: as §1

glucosamine-6-phosphate [3] = variants of: B1; assay: self-cleavage kobs at 160 uM GlcN6P; higher = faster cleavage; RNA array
In short: as §1

glucosamine-6-phosphate [4] = variants of: B1; assay: self-cleavage kobs at 640 uM GlcN6P; higher = faster cleavage; RNA array
In short: as §1

glucosamine-6-phosphate [5] = variants of: B1; assay: self-cleavage kobs at 2500 uM GlcN6P; higher = faster cleavage; RNA array
In short: as §1

glucosamine-6-phosphate [6] = variants of: B1; assay: self-cleavage kobs at 10000 uM GlcN6P; higher = faster cleavage; RNA array
In short: as §1

glucosamine-6-phosphate [7] = variants of: B1; assay: self-cleavage kobs at 40 uM GlcN6P; higher = faster cleavage; RNA array
In short: as §1

| Variant | kcat (glucosamine-6-phosphate [1]) [s⁻¹] | KM (glucosamine-6-phosphate [2]) [µM] | self-cleavage kobs at 160 uM GlcN6P (glucosamine-6-phosphate [3]) [s⁻¹] | self-cleavage kobs at 640 uM GlcN6P (glucosamine-6-phosphate [4]) [s⁻¹] | self-cleavage kobs at 2500 uM GlcN6P (glucosamine-6-phosphate [5]) [s⁻¹] | self-cleavage kobs at 10000 uM GlcN6P (glucosamine-6-phosphate [6]) [s⁻¹] | self-cleavage kobs at 40 uM GlcN6P (glucosamine-6-phosphate [7]) [s⁻¹] |
| --- | --- | --- | --- | --- | --- | --- | --- |
| A6G U55A | 0.00056 ± 6.3e-05 | 1630 ± 370 | 5.94e-05 ± 1.2e-05 | 0.000143 ± 1.7e-05 | 0.000388 ± 4.1e-05 | 0.000463 ± 4.3e-05 | – |
| A12G U31G | 0.000573 ± 0.00012 | 4660 ± 1500 | – | 6.61e-05 ± 8.2e-06 | 0.000254 ± 3.4e-05 | 0.000374 ± 3.9e-05 | – |
| U31G A36U | < 1e-05 | – | – | < 1e-05 | – | < 1e-05 | – |
| U47A U57A | 0.000331 ± 5.6e-05 | 6360 ± 1900 | – | 3.47e-05 ± 9.4e-06 | 8.34e-05 ± 2e-05 | 0.000205 ± 2.7e-05 | – |
| A39G G41A | 0.00311 ± 0.00078 | 3870 ± 1400 | 8.83e-05 ± 2.3e-05 | 0.000475 ± 9.1e-05 | 0.00153 ± 0.00033 | 0.00217 ± 0.0003 | 4.23e-05 ± 8.3e-06 |
| C11U C67U | 0.000394 ± 2.4e-05 | 925 ± 130 | 5.21e-05 ± 1e-05 | 0.000171 ± 1.8e-05 | 0.000278 ± 3e-05 | 0.000364 ± 3.9e-05 | – |
| U31G U45A A52G | 0.000908 ± 0.00012 | 4890 ± 1500 | – | – | 0.000361 ± 0.00013 | 0.000604 ± 8.7e-05 | – |
| G32U U56G | 0.00104 ± 0.00031 | 6410 ± 2800 | 5.05e-05 ± 1.1e-05 | 8.33e-05 ± 1.2e-05 | 0.000317 ± 5e-05 | 0.000633 ± 6.8e-05 | – |
| C50A G60C | 1.48e-05 ± 7e-06 | – | – | – | – | – | – |
| C67G C68G | 4.53e-05 ± 9.2e-06 | – | 6.2e-05 ± 7.7e-06 | 5.01e-05 ± 6.5e-06 | 3.7e-05 ± 4.7e-06 | – | – |
| A12U U65C | 0.0021 ± 0.00079 | – | 0.000217 ± 5.2e-05 | 0.000421 ± 9.9e-05 | 0.00209 ± 0.00035 | 0.00151 ± 0.00034 | 4.28e-05 ± 1.2e-05 |
| G35C C70G | < 1e-05 | – | – | – | < 1e-05 | – | – |
| G40C A53G | 0.00206 ± 0.00018 | 2160 ± 310 | 0.000126 ± 3e-05 | 0.000539 ± 0.00012 | 0.00115 ± 0.00032 | 0.00166 ± 0.00025 | 4.19e-05 ± 1.7e-05 |
| C10A U56A | < 1e-05 | – | – | – | – | < 1e-05 | – |
| A39G A52U | 0.00125 ± 0.00024 | – | – | 4.99e-05 ± 2.1e-05 | 0.000222 ± 4.6e-05 | 0.00054 ± 7.6e-05 | < 1e-05 |
| U54G G60U | < 1e-05 | – | – | – | – | – | – |
| A6G C11A | 2.52e-05 ± 7.7e-06 | – | – | – | – | – | – |

| Variant | kcat (glucosamine-6-phosphate [1]) [s⁻¹] | KM (glucosamine-6-phosphate [2]) [µM] | self-cleavage kobs at 160 uM GlcN6P (glucosamine-6-phosphate [3]) [s⁻¹] | self-cleavage kobs at 640 uM GlcN6P (glucosamine-6-phosphate [4]) [s⁻¹] | self-cleavage kobs at 2500 uM GlcN6P (glucosamine-6-phosphate [5]) [s⁻¹] | self-cleavage kobs at 10000 uM GlcN6P (glucosamine-6-phosphate [6]) [s⁻¹] | self-cleavage kobs at 40 uM GlcN6P (glucosamine-6-phosphate [7]) [s⁻¹] |
| --- | --- | --- | --- | --- | --- | --- | --- |
| A15U G63A | < 1e-05 | – | – | – | – | < 1e-05 | – |
| A53G C67U | 0.0134 ± 0.0047 | 1400 ± 680 | 0.000969 ± 0.00016 | 0.00617 ± 0.0011 | 0.0175 ± 0.0045 | 0.0111 ± 0.0015 | 0.000512 ± 6.3e-05 |
| U49G C50U A64U C67G C70A | 3.56e-05 ± 1.6e-05 | – | – | 4.15e-05 ± 2e-05 | – | – | – |
| U46G U55A | 0.0163 ± 0.0061 | – | – | 0.0028 ± 0.00069 | 0.00456 ± 0.0013 | 0.0133 ± 0.0027 | 0.000166 ± 3.9e-05 |
| U47C G51U | < 1e-05 | – | – | < 1e-05 | – | < 1e-05 | – |
| A15U C67U | 0.00194 ± 0.00074 | – | 0.000161 ± 1.7e-05 | 0.000409 ± 3.4e-05 | 0.00189 ± 0.00029 | 0.00167 ± 0.00023 | 5.32e-05 ± 6.3e-06 |
| C34G C50G G62A | 2.47e-05 ± 3.6e-06 | – | – | – | – | – | – |
| A6G A64G | 1.81e-05 ± 5.8e-06 | – | – | – | – | – | < 1e-05 |
| G29U U54G | 0.00305 ± 0.00096 | 1760 ± 820 | 0.000223 ± 4.1e-05 | 0.00114 ± 0.00016 | 0.0013 ± 0.00024 | 0.00321 ± 0.00046 | 7.25e-05 ± 1.3e-05 |
| C16G A39C U54G | 0.00043 ± 5.6e-05 | 1500 ± 410 | – | 0.000133 ± 2.1e-05 | 0.000227 ± 5.8e-05 | 0.000394 ± 6e-05 | – |
| G26U C70G | 0.000115 ± 1e-05 | 142 ± 48 | 6.66e-05 ± 1.3e-05 | 9.17e-05 ± 1.7e-05 | 0.000117 ± 1.6e-05 | 9.26e-05 ± 2.8e-05 | – |
| U31G C70G | 0.000132 ± 1.8e-05 | 595 ± 260 | 5.51e-05 ± 2.2e-05 | 6.05e-05 ± 1.2e-05 | 0.000118 ± 3.1e-05 | 0.000126 ± 1.8e-05 | – |
| A53C | 0.0162 ± 0.0036 | 2870 ± 790 | 0.000713 ± 2.4e-05 | 0.00273 ± 6.9e-05 | 0.00834 ± 0.0003 | 0.0126 ± 0.00041 | 0.000261 ± 5.6e-06 |
| G38A C71G | < 1e-05 | – | – | – | – | – | – |
| A6U A15C | 7.81e-05 ± 1.6e-05 | 4250 ± 2000 | – | – | 2.58e-05 ± 7.8e-06 | 5.56e-05 ± 8.2e-06 | < 1e-05 |
| A12G A42G | 0.00162 ± 0.0003 | 4880 ± 1300 | 3.49e-05 ± 1.3e-05 | 0.000189 ± 1.9e-05 | 0.00064 ± 7.7e-05 | 0.00103 ± 0.00012 | – |
| G29U C67G | 0.000311 ± 6.2e-05 | 3390 ± 1100 | 2.38e-05 ± 1e-05 | 5.43e-05 ± 5.8e-06 | 0.000111 ± 1.3e-05 | 0.000251 ± 2.4e-05 | – |

From the supplement of paper PMC7125110
